T1: Sortilin SORTECD_HIS (human, UniProt Q99523 78-755)
T1 construct: also called Sortilin-ECD-His; HIS-tagged Sortilin ECD
T1 sequence: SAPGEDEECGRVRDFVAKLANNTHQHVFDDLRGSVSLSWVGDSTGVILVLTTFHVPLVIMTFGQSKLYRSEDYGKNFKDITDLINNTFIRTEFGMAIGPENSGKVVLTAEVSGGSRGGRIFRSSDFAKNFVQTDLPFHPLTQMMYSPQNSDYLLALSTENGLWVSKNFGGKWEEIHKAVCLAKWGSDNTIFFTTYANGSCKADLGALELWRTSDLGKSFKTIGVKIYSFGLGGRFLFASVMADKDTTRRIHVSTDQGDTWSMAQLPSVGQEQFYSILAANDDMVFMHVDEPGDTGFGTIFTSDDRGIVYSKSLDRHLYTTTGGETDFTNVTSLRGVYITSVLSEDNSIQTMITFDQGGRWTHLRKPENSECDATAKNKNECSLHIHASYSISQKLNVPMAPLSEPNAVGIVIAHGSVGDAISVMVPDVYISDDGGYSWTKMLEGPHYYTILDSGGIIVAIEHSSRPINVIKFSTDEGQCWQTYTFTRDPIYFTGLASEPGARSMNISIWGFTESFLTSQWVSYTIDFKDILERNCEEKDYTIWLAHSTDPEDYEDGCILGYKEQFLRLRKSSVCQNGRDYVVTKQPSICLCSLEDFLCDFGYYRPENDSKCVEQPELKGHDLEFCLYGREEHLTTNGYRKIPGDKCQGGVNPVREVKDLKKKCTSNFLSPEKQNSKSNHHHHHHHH


Target: T1, Sortilin SORTECD_HIS
Experiment: HTRF, displacement of PGRN from His-tagged Sortilin ECD
Description: Dose-response evaluation of antibodies was performed with ten concentrations covering 50 pM to 1 μM in a 3-fold dilution curve. The half-maximal inhibitory concentration (IC50) values were calculated by non-linear regression using sigmoidal concentration response (variable slope) in XLfit 4 (IDBS, UK).
Experiments were performed in assay buffer (50 mM Phosphate, pH 7.0, 0.1% BSA) in a total volume of 20 μl in a Greiner 384 well, white, low volume microtiter plate, (784075, Greiner).

% inh highest conc [%]	Binder
75	1320 (antibody, V domains shown, also called Antibody 1320; Ab 1320) VH: not shown VL: EIVLTQSPATLSLSPGERATLSCRASQSVSSYLAWYQQRPGQAPRLLIYDASNRATGIPARFSGSGSGTDFTLSISSLEPEDFAVYYCQQRTNWSITFGQGTRLEIK
98	1289 (antibody, V domains shown, the sheets print 1289 only, the text names its one 1289 antibody 1289-02; also called IgG1-6003-1289; Antibody 1289-02) VH: EVQLLESGGGLVQPGGSLRLSCAASGFTFSSFAMSWVRQAPGKGLEWVSAISGSGGSTYYADSVKGRFTISRDNSKNTLSLQMNSLRAEDTAVYYCATPITLVRGVGAFDIWGQGTMVTVSS VL: not shown

Reference: patent US20170267761A1 (H LUNDBECK A S, published 2017)
